Measured values published in the supplement of paper PMC6755084.

Tested on: F1*sub RNA substrate (template-directed ligation)
Assay: fraction ligated after 30 min (ligated reads / total reads); higher = more ligase activity; sequences stand for … in GAGACCGCAACTGAAAAGTTGT…AGTTCTGCACGTAGAAGCAAAAGGC
Conditions: 42 °C
In short: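 Oligo-pool templates underwent PCR amplification, T7 transcription and gel purification to yield ribozyme variants. Gel-separated ligated and unligated bands were converted to complementary DNA with barcoded primers and sequenced on a MiSeq, keeping core bases of quality ≥20. The ratio of ligated reads to total reads gave the fraction ligated for every variant.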

Sequence | fraction ligated
TATCACTTGGTAGACACTTTGGATGGGTTGA [3d1586] | 0.829
TATCACTTGTCGTAGACACTTTGGTGGTTGA [3d2049] | 0.0676
ATCACTTGTCGTAAGACACTTGGATGGGTTG [3d259] | 0.687
TATCACTGTGTAAGACCTTTGGATGGGTTGA [3d1349] | 0.889
TATCACTTTCTAAGACACTTTGGAGGGTTGA [3d1489] | 0.026
TTCACTTGTCGTAGACACTTTGGAGGGTTGA [3d438] | 0.149
TATCATGTCGTAAGACACTTTGATGGGTTGA [3d1134] | 0.816
TATCATTGTCGTAAACACTTTGATGGGTTGA [3d1231] | 0.597
TATACTTGTCTAAGACCTTTGGATGGGTTGA [3d848] | 0.481
TATCACTTGTCGTAGCCTTTGGATGGGTTGA [3d2004] | 0.768
TTCACTTGTCGTAGACCTTTGGATGGGTTGA [3d433] | 0.751
TATACTTGCGAAGACACTTTGGATGGGTTGA [3d814] | 0.649
TATCACTGCGTAAGAACTTTGGATGGGTTGA [3d1333] | 0.842
TATCACTTGTCGAGAACTTTGGATGGGTTGA [3d1905] | 0.819
TATACTTGTGTAAGACACTTTGGATGGGTTA [3d841] | 0.134
TATACTTGTCGTAGAACTTTGGATGGGTTGA [3d873] | 0.831
TATCCTTGTCGTAAACCTTTGGATGGGTTGA [3d1056] | 0.766
TATCACTTGCGTAAGACACTTTGGATGGGTT [3d1703] | 0.704
TATCATTTCGTAAGACCTTTGGATGGGTTGA [3d1147] | 0.775
ATCATTGTCGTAAGACACTTTGGATGGGTTG [3d104] | 0.703
TATCACTTGTCGTAAACACTTGGATGGGTTGA [2d237] | 0.786

Sequence | fraction ligated
TATCACGTCGTAAGACACTTGGATGGGTTGA [3d1304] | 0.81
TATCACTTGTCGAAACACTTTGATGGGTTGA [3d1919] | 0.721
ATCACTTGCGTAAGCACTTTGGATGGGTTGA [3d145] | 0.804
ATCCTTGTCGAAGACACTTTGGATGGGTTGA [3d72] | 0.773
TATCACTTGTCGTAACACTTTGGATGGGTTA [3d2001] | 0.545
TTCACTTGTCGTAGACACTTTGGATGGGTTGA [2d34] | 0.798
ATCACTTGTCGTAAGACACTTTGATGGGTTGA [2d19] | 0.702
TATCTTGTCGTAAGCACTTTGGATGGGTTGA [3d747] | 0.743
TACACTTGTCGAGACACTTTGGATGGGTTGA [3d646] | 0.195
TATCCTTGTCGTAAGACACTTTGGGGGTTGA [3d1110] | 0.0067
TATCACTGTCGTAAGCATTTGGATGGGTTGA [3d1410] | 0.797
TATACTTGTCTAAGACACTTTGGATGGTTGA [3d854] | 0.0769
TATCATTGTCGTAAACACTTGGATGGGTTGA [3d1230] | 0.778
TATCCTTGTCGAAGACCTTTGGATGGGTTGA [3d1033] | 0.747
TATCACTTTGTAAGACACTTTGGTGGGTTGA [3d1474] | 0.0671
TATCACTTGTCGTAGACACTTTGGAGGGTTGA [2d230] | 0.167
TATCACTTTGTAAGACACTTTGGATGGGTTA [3d1477] | 0.776
TATACTTGCGTAAGACACTTTGGATGGGTTGA [2d73] | 0.703
TATCACTTGTCTAAGACACTTTGGGGGTTGA [3d1891] | 0.118
TATCACTTGTCGTAAGACATTTGGAGGGTTA [3d2225] | 0.0022
TATCACTTGTCGTAAGACATGGATGGGTTGA [3d2207] | 0.808

Sequence | fraction ligated
ATACTTGCGTAAGACACTTTGGATGGGTTGA [3d50] | 0.177
TATCACTGTCGTAACACTTTGGATGGGTTGA [3d1386] | 0.826
ATCCTTGTGTAAGACACTTTGGATGGGTTGA [3d70] | 0.734
TATCACTTGTCGTAAACATTTGGATGGGTTGA [2d236] | 0.83
TATCACGTCGTAAGACCTTTGGATGGGTTGA [3d1302] | 0.786
TAACTTGTCGTAAGACACTTTGGAGGGTTGA [3d524] | 0.0881
TATCACTTGTCGTAAACACTTTGATGGGTTG [3d2093] | 0.682
TATCCTTGCGTAAACACTTTGGATGGGTTGA [3d988] | 0.807
TACACTTGTCGAAGACACTTTGGATGGTTGA [3d656] | 0.505
TATCACTTGCGTAAGACACTTGGATGGGTTG [3d1687] | 0.796
TACCTTGTCGTAAGCACTTTGGATGGGTTGA [3d536] | 0.668
TATCACTTGTCGTAAGACACTTTGAGGGTTG [3d2266] | 0.00798
TATCACTGTCGTAGACACTTTGGATGGGTTGA [2d134] | 0.861
TATCACTTGTTAGACACTTTGGATGGGTTGA [3d1705] | 0.842
TACACTTGTCGTAGACACTTTGGATGGGTTA [3d670] | 0.0913
TATCACTGTCGTAGACACTTTGGTGGGTTGA [3d1393] | 0.499
TATCACTTCGTAAGACACTTTGGATGGGTTGA [2d129] | 0.825
TATCATTGTCTAAGCACTTTGGATGGGTTGA [3d1190] | 0.765
TATCCTTGTCGTAACACTTTGGATGGGTTGA [3d1043] | 0.81
TATCACTTGTCGTAAACACTTTGGAGGGTTGA [2d240] | 0.0926
TATCCTTGTCGAAGACACTTTGGATGGGTTG [3d1041] | 0.783

Sequence | fraction ligated
TTCCTTGTCGTAAGACACTTTGGTGGGTTGA [3d312] | 0.204
TATACTTGTCGTAAGACCTTTGGATGGTTGA [3d915] | 0.0819
TACACTTGCGTAAACACTTTGGATGGGTTGA [3d605] | 0.036
TACACTTGTCGTAAGACATTTGGATGGTTGA [3d711] | 0.113
TTCACTTGTGTAAGAACTTTGGATGGGTTGA [3d392] | 0.694
TATCCTTTCGTAAGACACTTTGGATGGGTTA [3d982] | 0.371
TATCACTGTCTAAGAACTTTGGATGGGTTGA [3d1362] | 0.849
TATACTGTCGTAAGACACTTTGGATGGGTTA [3d794] | 0.0511
TATCACTTGCGAAGACACTTTGGATGGGTTA [3d1624] | 0.733
TTCACTTTCGTAAGACACTTTGGATGGGTTGA [2d29] | 0.501
TATCACTTCGTAAGACCTTTGGATGGGTTGA [3d1318] | 0.802
TTCACTTGTCGTAAGACATTTGGATGGGTTGA [2d39] | 0.776
TATCACTTGTCGTAAGACACTTATGGGTTGA [3d2238] | 0.0156
TATCACTTGTCTAAACCTTTGGATGGGTTGA [3d1837] | 0.789
TATCACTGTCGTAGACACTTTGGATGGGTTA [3d1396] | 0.791
TATCACTTGTCGTAAGACACTTTGGGGGTTGA [2d289] | 0.0225
TATCACTGTCGTAGACACTTGGATGGGTTGA [3d1391] | 0.799
ATCACTGTCGTAAGACCTTTGGATGGGTTGA [3d115] | 0.726
ATCACTTTCTAAGACACTTTGGATGGGTTGA [3d125] | 0.753
TATCATTGTCGTAAGAACTTTGATGGGTTGA [3d1249] | 0.545
